To fix the notation:
T1: EsCas13d, nuclease-dead (Eubacterium siraeum, UniProt B0MS50, R295A;H300A;R849A;H854A)
T1 sequence: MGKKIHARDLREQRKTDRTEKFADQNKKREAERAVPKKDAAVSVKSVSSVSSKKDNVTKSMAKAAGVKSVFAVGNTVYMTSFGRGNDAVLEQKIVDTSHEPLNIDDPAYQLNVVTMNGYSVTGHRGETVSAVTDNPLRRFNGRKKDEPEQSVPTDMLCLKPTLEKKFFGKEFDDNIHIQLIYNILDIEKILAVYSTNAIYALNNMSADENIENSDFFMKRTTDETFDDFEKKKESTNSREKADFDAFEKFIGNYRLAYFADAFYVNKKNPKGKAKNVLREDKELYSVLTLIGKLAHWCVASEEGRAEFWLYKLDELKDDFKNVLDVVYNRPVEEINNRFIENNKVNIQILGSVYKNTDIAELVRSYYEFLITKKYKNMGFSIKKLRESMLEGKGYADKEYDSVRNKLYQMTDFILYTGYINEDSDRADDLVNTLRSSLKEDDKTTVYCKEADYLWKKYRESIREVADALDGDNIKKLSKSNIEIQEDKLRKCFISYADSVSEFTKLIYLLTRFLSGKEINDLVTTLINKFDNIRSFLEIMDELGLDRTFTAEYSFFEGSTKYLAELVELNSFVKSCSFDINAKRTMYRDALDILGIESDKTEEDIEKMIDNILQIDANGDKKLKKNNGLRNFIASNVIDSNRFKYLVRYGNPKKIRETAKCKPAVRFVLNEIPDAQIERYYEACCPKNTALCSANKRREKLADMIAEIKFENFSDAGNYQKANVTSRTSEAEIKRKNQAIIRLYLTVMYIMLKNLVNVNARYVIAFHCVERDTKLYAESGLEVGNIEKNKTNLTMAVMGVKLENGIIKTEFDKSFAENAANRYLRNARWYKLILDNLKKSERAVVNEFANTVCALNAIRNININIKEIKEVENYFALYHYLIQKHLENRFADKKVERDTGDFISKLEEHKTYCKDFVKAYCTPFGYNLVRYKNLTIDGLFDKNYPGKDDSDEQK

B1: target 2 MT 5'PFS UGC 3'PFS AGC (mixed)
RNA 1: CACCCGUGCAAAAUUGCAGGGGUCUAAAACCUUCUCCAAAUUGUUUCAUCCU
RNA 2: GGGAAUGGAUCCACAUCUACGAAUUCUGCAGGAUGAAACAAUUUGGAGAAGAGCAGAUCGGAAGAGCACACGU
B2: target 2 MT 5'PFS UGC 3'PFS AGA (mixed)
RNA 1: B1 RNA 1
RNA 2: B1 RNA 2 with C54A
B3: target 2 MT 5'PFS CUU 3'PFS CAU (mixed)
RNA 1: B1 RNA 1
RNA 2: B1 RNA 2 with U27C, G28U, C29U, A52C, G53A, C54U
B4: target 2 MT 5'PFS AUA 3'PFS UUC (mixed)
RNA 1: B1 RNA 1
RNA 2: B1 RNA 2 with U27A, G28U, C29A, A52U, G53U
B5: target 2 MT 5'PFS UUC 3'PFS CAC (mixed)
RNA 1: B1 RNA 1
RNA 2: B1 RNA 2 with G28U, A52C, G53A
B6: target 2 MT 5'PFS CAA 3'PFS CUA (mixed)
RNA 1: B1 RNA 1
RNA 2: B1 RNA 2 with U27C, G28A, C29A, A52C, G53U, C54A
B7: target 2 MT 5'PFS UGA 3'PFS AAG (mixed)
RNA 1: B1 RNA 1
RNA 2: B1 RNA 2 with C29A, G53A, C54G
B8: target 2 MT 5'PFS CAG 3'PFS ACG (mixed)
RNA 1: B1 RNA 1
RNA 2: B1 RNA 2 with U27C, G28A, C29G, G53C, C54G
B9: target 2 MT 5'PFS CAU 3'PFS AUG (mixed)
RNA 1: B1 RNA 1
RNA 2: B1 RNA 2 with U27C, G28A, C29U, G53U, C54G
B10: target 2 MT 5'PFS CAA 3'PFS CUC (mixed)
RNA 1: B1 RNA 1
RNA 2: B1 RNA 2 with U27C, G28A, C29A, A52C, G53U
B11: target 2 MT 5'PFS AGC 3'PFS UCG (mixed)
RNA 1: B1 RNA 1
RNA 2: B1 RNA 2 with U27A, A52U, G53C, C54G
B12: target 2 MT 5'PFS ACU 3'PFS UUG (mixed)
RNA 1: B1 RNA 1
RNA 2: B1 RNA 2 with U27A, G28C, C29U, A52U, G53U, C54G
B13: target 2 MT 5'PFS CUU 3'PFS CAC (mixed)
RNA 1: B1 RNA 1
RNA 2: B1 RNA 2 with U27C, G28U, C29U, A52C, G53A
B14: target 2 MT 5'PFS CUC 3'PFS UGC (mixed)
RNA 1: B1 RNA 1
RNA 2: B1 RNA 2 with U27C, G28U, A52U
B15: target 2 MT 5'PFS CUU 3'PFS CAA (mixed)
RNA 1: B1 RNA 1
RNA 2: B1 RNA 2 with U27C, G28U, C29U, A52C, G53A, C54A
B16: target 2 MT 5'PFS AGC 3'PFS UCA (mixed)
RNA 1: B1 RNA 1
RNA 2: B1 RNA 2 with U27A, A52U, G53C, C54A
B17: target 2 MT 5'PFS UUC 3'PFS CAA (mixed)
RNA 1: B1 RNA 1
RNA 2: B1 RNA 2 with G28U, A52C, G53A, C54A
B18: target 2 MT 5'PFS UCA 3'PFS UAU (mixed)
RNA 1: B1 RNA 1
RNA 2: B1 RNA 2 with G28C, C29A, A52U, G53A, C54U
B19: target 2 MT 5'PFS ACU 3'PFS UUA (mixed)
RNA 1: B1 RNA 1
RNA 2: B1 RNA 2 with U27A, G28C, C29U, A52U, G53U, C54A
B20: target 2 MT 5'PFS AUA 3'PFS UUA (mixed)
RNA 1: B1 RNA 1
RNA 2: B1 RNA 2 with U27A, G28U, C29A, A52U, G53U, C54A
B21: target 2 MT 5'PFS AGC 3'PFS UCC (mixed)
RNA 1: B1 RNA 1
RNA 2: B1 RNA 2 with U27A, A52U, G53C
B22: target 2 MT 5'PFS AGC 3'PFS UCU (mixed)
RNA 1: B1 RNA 1
RNA 2: B1 RNA 2 with U27A, A52U, G53C, C54U
B23: target 2 MT 5'PFS CUU 3'PFS CAG (mixed)
RNA 1: B1 RNA 1
RNA 2: B1 RNA 2 with U27C, G28U, C29U, A52C, G53A, C54G
B24: target 2 MT 5'PFS UGA 3'PFS AAC (mixed)
RNA 1: B1 RNA 1
RNA 2: B1 RNA 2 with C29A, G53A
B25: target 2 MT 5'PFS ACU 3'PFS UUU (mixed)
RNA 1: B1 RNA 1
RNA 2: B1 RNA 2 with U27A, G28C, C29U, A52U, G53U, C54U
B26: target 2 MT 5'PFS UGA 3'PFS AAA (mixed)
RNA 1: B1 RNA 1
RNA 2: B1 RNA 2 with C29A, G53A, C54A
B27: target 2 MT 5'PFS UCA 3'PFS UAC (mixed)
RNA 1: B1 RNA 1
RNA 2: B1 RNA 2 with G28C, C29A, A52U, G53A
B28: target 2 MT 5'PFS CUC 3'PFS UGU (mixed)
RNA 1: B1 RNA 1
RNA 2: B1 RNA 2 with U27C, G28U, A52U, C54U
B29: target 2 MT 5'PFS CAG 3'PFS UUC (mixed)
RNA 1: B1 RNA 1
RNA 2: B1 RNA 2 with U27C, G28A, C29G, A52U, G53U
B30: target 2 MT 5'PFS UUC 3'PFS CAG (mixed)
RNA 1: B1 RNA 1
RNA 2: B1 RNA 2 with G28U, A52C, G53A, C54G
B31: target 2 MT 5'PFS UGA 3'PFS AAU (mixed)
RNA 1: B1 RNA 1
RNA 2: B1 RNA 2 with C29A, G53A, C54U
B32: target 2 MT 5'PFS ACU 3'PFS UUC (mixed)
RNA 1: B1 RNA 1
RNA 2: B1 RNA 2 with U27A, G28C, C29U, A52U, G53U
B33: target 2 MT 5'PFS CUC 3'PFS UGA (mixed)
RNA 1: B1 RNA 1
RNA 2: B1 RNA 2 with U27C, G28U, A52U, C54A
B34: target 1 U10C,G12C (mixed)
RNA 1: CACCCGUGCAAAAAUGCAGGGGUCUAAAACUGAGCGGAUAACCUCUCUAUGG
RNA 2: GGGAAUGGAUCCACAUCUACGAAUUCGUACCAUAGAGAGCUCAUCCGCUCACCGAGAUCGGAAGAGCACACGU
B35: target 1 G17C,A18G (mixed)
RNA 1: B34 RNA 1
RNA 2: B34 RNA 2 with A34G, G35C, C40G, C42U
B36: target 1 A14U,A16C (mixed)
RNA 1: B34 RNA 1
RNA 2: B34 RNA 2 with A36C, A38U, C40G, C42U

Changes are numbered by the printed parent chain. In names and notes the source's numbering stands.

This series concerns the target T1, EsCas13d, nuclease-dead. In words: crRNA (strand 1, pre-loaded); Mg2+; 40 mM Tris-HCl pH 7.5, 150 mM NaCl, 6 mM MgCl2, 1 mM DTT, 0.1% Tween-20, 0.2 mg/ml BSA; 25 C; 10 min per concentration, then washed. The settings on record: tags: His6-TwinStrep-SUMO cleaved; N-terminal SNAP kept (SNAP-Surface 488); label: 3' end held by stalled T7 RNA polymerase.
In the case of B1, the Kd (in general, the concentration at which binding is half-saturated) came to 19.7 ± 1.9 nM.

B2: the Kd came out at 26 ± 9 nM.

B3 had a Kd of 4.1 ± 0.6 nM.

In turn, B4 had an equilibrium dissociation constant (Kd) of 13.4 ± 2.4 nM.

B5 had a Kd of 13 ± 4 nM.

B6 gave a Kd of around 5 nM.

In turn, B7 showed a Kd of 7.4 ± 0.9 nM.

Molecule B8 displayed a Kd of 5.8 ± 2.8 nM.

Consider B9, for which the Kd amounted to 4 ± 0.7 nM.

B10 showed a Kd of 5.3 ± 2.1 nM.

For B11, the Kd was determined as 14.3 ± 3.2 nM.

On to B12, for which the Kd is 7 ± 1 nM.

For B13, the Kd amounted to 3.41 ± 0.28 nM.

As for B14, binding was characterised by a dissociation constant (Kd) of 1.98 ± 0.26 nM.

The molecule B15 yielded a dissociation constant (Kd) of 2.9 ± 0.4 nM.

B16 gave a Kd of 27 ± 10 nM.

In turn, B17 showed a Kd of 30 ± 6 nM.

Molecule B18 displayed a Kd of 5.1 ± 0.7 nM.

In turn, B19 showed a Kd of 9.4 ± 2.2 nM.

For the molecule B20, the Kd was 10.7 ± 1.7 nM.

As for B21, the affinity, expressed as Kd, was 23 ± 4 nM.

Turning to B22, the Kd was determined as 16.1 ± 2.8 nM.

On to B23, for which binding was characterised by a dissociation constant (Kd) of 3.75 ± 0.3 nM.

Molecule B24 came in with a Kd of 10.1 ± 2.4 nM.

The molecule B25 had a Kd of 6.4 ± 0.8 nM.

Molecule B26 registered a Kd of 9 ± 2.9 nM.

B27 gave a Kd of 5.7 ± 0.9 nM.

B28 came in with a Kd of 2.23 ± 0.19 nM.

As for B29, the Kd amounted to 19 ± 8 nM.

As to B30, binding was put at a Kd of 6.5 ± 1.4 nM.

On to B31, for which binding was characterised by a dissociation constant (Kd) of 6.2 ± 0.8 nM.

The molecule B32 yielded a Kd of 7.1 ± 2 nM.

The molecule B33 had a Kd of 1.66 ± 0.33 nM.

B34 displayed a Kd of 71 ± 27 nM.

The molecule B35 gave a Kd of around 90 nM.

Regarding B36, the Kd worked out at 100 ± 40 nM.

For the origin of these results see publication PMC10786891, “Massively parallel profiling of RNA-targeting CRISPR-Cas13d”.
